Experimental findings from patent US20250012810A1 (NORDIC BIOSCIENCE A S, published 2025) are described below.

For the test, the target named is T1, elongated peptide GPPGPPGRLVD (human).
T1 construct: The range follows from the stated cleavage site V1709-D1710 and the peptide length
T1 peptide: GPPGPPGRLVD
Description: competitive ELISA on biotin-… coated streptavidin plates. Here is the method: A competitive ELISA using the monoclonal antibody raised against C7 was performed using the following procedure:
Streptavidin-coated plates were coated with 100 μL/well of 2.5 ng/mL biotin-labeled peptide (Biotin-[…], SEQ ID NO: 10) diluted in assay buffer (50 mM TBS-BTB, 2 g/L NaCl, pH 8.0) and incubated at 20° C., 300 rpm shaking for 30 minutes. Plates were washed five times in washing buffer ([…] TRIS, 50 mM NaCl, pH 7.2). Sample or standard peptide (20 μL) was added in double determinations and followed immediately by addition of 100 μL/well of 200 ng/mL HRP-labeled monoclonal antibody diluted in assay buffer and plates were incubated at 20° C., 300 rpm shaking for 3 hours. The standard peptide was a synthetic peptide ([…], SEQ ID NO: 1) with a starting concentration of 125 ng/ml and diluted 2-fold to create an 11 points calibration curve (FIG. 1). After incubation, plates were washed five times in washing buffer. A volume of 100 μL 3,3′, 5,5′-tetramethylbenzidine (TMB) was added and incubated for 15 min at 20° C. in the dark. To stop the enzyme reaction of TMB, […] 0.1% sulphuric acid was added and the absorbance was measured at 450 nm with 650 nm as the reference using an ELISA reader. A calibration curve was plotted using a 4-parametric mathematical fit model. […] All samples were measured within the range of the assay. […]

B1: monoclonal antibody raised against the C-terminal neo-epitope amino acid sequence …-COOH (C7) (antibody, mouse IgG1, kappa, V domains shown)
VH: EVQLQQSGPELVKPGASVKISCKTSGYTFIENTMNWVKQSHGKSLEWIGGINPKIGGSIYNQKFQDKATLTVDKSSSTAYMELRSLTSDDSAVYYCARGIYDEGWHFDVWGAGTTVTVSS
VL: DIVMTQAAFSNPVTLGTSASISCRSSQSLLYSNGITYLYWYLQKPGQSPQLLIYQMSNLASGVPDRFSSSGSGTDFTLRISRVEAEDVGVYYCAQNLELPWTFGGGTKLEIKR
notes: also called monoclonal antibody raised against C7; HRP-labeled monoclonal antibody
On to B1, for which the binding result is “no binding”.
